The target in experiment [1] is T1, CD20 KDD mutant (human, UniProt P11836 1-297).
T1 construct: whole, on cells; Transiently expressed in HEK293F cells; also called T159K/N163D/N166D
T1 sequence (looked up): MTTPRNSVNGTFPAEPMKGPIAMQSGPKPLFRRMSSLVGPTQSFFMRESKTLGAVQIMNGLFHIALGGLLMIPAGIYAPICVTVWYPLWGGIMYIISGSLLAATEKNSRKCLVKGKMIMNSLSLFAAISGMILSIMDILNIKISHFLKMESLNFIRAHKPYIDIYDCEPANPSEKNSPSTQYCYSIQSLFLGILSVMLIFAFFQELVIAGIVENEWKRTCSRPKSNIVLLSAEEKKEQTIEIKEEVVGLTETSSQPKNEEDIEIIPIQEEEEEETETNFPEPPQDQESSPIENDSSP
Briefly: flow cytometry, HEK293F cells expressing CD20 KDD mutant. The procedure: (§1) PCR was performed on a Tgradient Thermocycler 96 (Biometra) using a 35 cycle program of: +95° C. for 15 min, followed by 35 cycles of: +94° C. for 30 sec, anneal: 55° C. for 30 sec and extension: +72° C. for 2 min, followed by a final extension step at 72° C. for 10 min and subsequent storage at 4° C. The completed reactions were analyzed by agarose gel electrophoresis. See Table 11 for details of primer pairs used for colony PCR. DNA sequencing: Plasmid DNA samples were send to AGOWA (Berlin, Germany) for sequence analysis. Sequences were analyzed using the VectorNTI software package (Informax, Frederick, Md., USA).
(§2) Mutagenesis: The mutagenesis was performed, using the QuikChange® XL Site-Directed Mutagenesis kit (Cat 200517-5, Lot 1120630, Stratagene Europe) according to the manufacturer's instructions. Mutagenesis reactions were concentrated using ethanol precipitation and transformed into either oneshot DH5α-TIR competent E. coli cells or electroporated into ElectroTen-Blue® Electroporation-Competent Cells. Colonies were checked by colony PCR and restriction digestion prior to transfection. […] Anti-CD20 Antibody binding: HEK293F cells were taken up in staining buffer (PBS supplemented with 0.1% BSA and 0.02% NaN₃) and added to round bottom plates (1-3×10⁵/well in 100 μL). […] After washing twice in staining buffer, cells were incubated in 50 μL secondary antibody at 4° C. for 30 min. As a secondary antibody, R-Phycoerythrin (PE)-conjugated goat-anti-human IgG F(ab′)₂ was used, as described supra. Next, cells were washed once in staining buffer, re-suspended in 150 μL staining buffer and analyzed on a flow cytometer (FACSCanto-720, Becton Dickinson, San Diego, Calif., USA) and 10,000 events per sample were acquired at high flow rate. Binding curves were analyzed using non-linear regression (sigmoidal dose-response with variable slope) using GraphPad Prism V75.04 software (GraphPad Software, San Diego, Calif., USA).

Experiment [2] concerns the target T2, CD20-AxP (human, UniProt P11836 1-297).
T2 construct: whole, on cells; Transiently expressed in HEK293F cells; also called AxP mutant; CD20 mutant (CD20-AxP)
T2 sequence (looked up): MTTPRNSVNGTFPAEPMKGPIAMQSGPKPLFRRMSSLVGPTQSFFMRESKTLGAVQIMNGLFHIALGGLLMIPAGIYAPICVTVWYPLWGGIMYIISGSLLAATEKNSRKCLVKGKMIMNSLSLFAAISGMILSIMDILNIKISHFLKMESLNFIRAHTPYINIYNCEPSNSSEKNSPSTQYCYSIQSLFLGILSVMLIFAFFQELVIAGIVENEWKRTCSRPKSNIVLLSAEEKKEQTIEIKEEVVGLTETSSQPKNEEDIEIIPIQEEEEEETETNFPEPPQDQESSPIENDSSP
Briefly: flow cytometry, HEK293F transfectants, MFI mutant/MFI wt at 10 µg/mL. The procedure: (§3) As a secondary antibody, R-Phycoerythrin (PE)-conjugated goat-anti-human IgG F(ab′)₂ was used, as described supra. Next, cells were washed once in staining buffer, re-suspended in 150 μL staining buffer and analyzed on a flow cytometer (FACSCanto-720, Becton Dickinson, San Diego, Calif., USA) and 10,000 events per sample were acquired at high flow rate. Binding curves were analyzed using non-linear regression (sigmoidal dose-response with variable slope) using GraphPad Prism V75.04 software (GraphPad Software, San Diego, Calif., USA).
(§4) Numbers indicate the percentage of binding to the CD20 mutants, relative to binding to wild type CD20, at 10 μg/mL. The percentage of binding was calculated by the following formula: (MFI binding to CD20 mutant)/(MFI binding CD20 wt) × 100%
For orientation: A flow cytometer gives signals particle by particle.

The target of experiment [3] is T1, CD20 KDD mutant. Described as above. The procedure: as §3, §4
The target of experiment [4] is T3, human CD20 (human, UniProt P11836 1-297).
T3 construct: whole, on cells; On Daudi and other human B cell lines, on human B cells in blood, or transiently expressed in HEK293F cells (construct pEE12.4CD20HS-GA); also called wild type CD20; WT CD20
T3 sequence (looked up): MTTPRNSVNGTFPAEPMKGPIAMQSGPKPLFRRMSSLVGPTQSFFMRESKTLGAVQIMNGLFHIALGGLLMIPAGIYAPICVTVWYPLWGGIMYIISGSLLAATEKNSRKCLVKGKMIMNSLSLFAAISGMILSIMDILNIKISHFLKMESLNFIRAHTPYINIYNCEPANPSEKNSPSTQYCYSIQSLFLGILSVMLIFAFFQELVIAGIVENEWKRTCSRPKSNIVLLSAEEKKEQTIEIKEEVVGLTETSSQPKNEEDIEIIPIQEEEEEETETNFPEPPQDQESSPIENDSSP
Description: flow cytometry on Daudi cells (CD20-positive, CD3-negative); PE-conjugated goat anti-human IgG F(ab')2; median FI (PE). The procedure: (§5) In addition to the non-activating mutations, L234F, L235E, D265A, on both arms, the bispecific antibody contained an F405L mutation on one arm and a K409R mutation on the other arm.
(§6) Cells (1×10⁵ cells/well) were incubated in polystyrene 96-well round-bottom plates (Greiner bio-one, cat. no. 650101) with serial dilutions of antibodies (range 0.041 to 30 μg/mL in 3-fold dilution steps [A-E] and 0.00061 to 10 μg/mL in 4-fold dilution steps [F-I]) in 100 μL PBS/0.1% BSA/0.02% azide (from here designated as staining buffer) at 4° C. for 30 min.
(§7) After washing twice in staining buffer, cells were incubated in 50 μL secondary antibody at 4° C. for 30 min. As a secondary antibody, R-Phycoerythrin (PE)-conjugated goat-anti-human IgG F(ab′)₂ (cat. no. 109-116-098, Jackson ImmunoResearch Laboratories, Inc., West Grove, Pa.) diluted 1:200 in staining buffer, was used for all experiments. Next, cells were washed twice in staining buffer, re-suspended in 30 μL staining buffer and analyzed on an iQue screener (Intellicyt Corporation, USA) (for FIG. 1A-E) or re-suspended in 100 μL staining buffer and analyzed on a FACSCANTOII (BD Biosciences) (FIG. 1F-I). Binding curves were analyzed using non-linear regression (sigmoidal dose-response with variable slope) using GraphPad Prism V75.04 software (GraphPad Software, San Diego, Calif., USA).

Experiment [5] concerns the target T3, human CD20. Description: flow cytometry on HEK293F cells transiently expressing wild type CD20; PE-conjugated goat anti-human IgG F(ab')2; MFI. The procedure:
as §1, §2

Experiment [6] concerns the target T3, human CD20. Description: flow cytometry on Daudi cells (CD20-positive, CD3-negative); PE-conjugated goat anti-human IgG F(ab')2; median FI (PE). The procedure:
as §5, §6, §7
This is another data set of the same source.

B1: bsIgG1-huCD3-H1L1-FEALxCD20-2C6-FEAR (bispecific antibody)
heavy 1: not shown
light: not shown
heavy 2: AVQLVESGGGLVQPGRSLRLSCAASGFTFGDYTMHWVRQAPGKGLEWVSGISWNSGSIGYADSVKGRFTISRDNAKNSLYLQMNSLRAEDTALYYCTKDNQYGSGSTYGLGVWGQGTLVTVSSASTKGPSVFPLAPSSKSTSGGTAALGCLVKDYFPEPVTVSWNSGALTSGVHTFPAVLQSSGLYSLSSVVTVPSSSLGTQTYICNVNHKPSNTKVDKRVEPKSCDKTHTCPPCPAPEFEGGPSVFLFPPKPKDTLMISRTPEVTCVVVAVSHEDPEVKFNWYVDGVEVHNAKTKPREEQYNSTYRVVSVLTVLHQDWLNGKEYKCKVSNKALPAPIEKTISKAKGQPREPQVYTLPPSREEMTKNQVSLTCLVKGFYPSDIAVEWESNGQPENNYKTTPPVLDSDGSFFLYSRLTVDKSRWQQGNVFSCSVMHEALHNHYTQKSLSLSPGK
VL: EIVLTQSPATLSLSPGERATLSCRASQSVSSYLAWYQQKPGQAPRLLIYDASNRATGIPARFSGSGSGTDFTLTISSLEPEDFAVYYCQQRSNWPLTFGGGTKVEIK
notes: also called CD3x2C6; huCD3x2C6
Consider B1, for which the binding result in experiment [1] is “no binding (tested: 0.0015-10 µg/mL)”. In addition, the “% of wt CD20 binding” value in experiment [2] is 92%; in experiment [3] it was 3%. The EC50 (read off the curve) (in general, the concentration needed to bring the measured effect to its halfway point) is around 0.9 µg/mL in experiment [4] and around 0.1 µg/mL in experiment [5].

B2: IgG1-7D8-FEAR (antibody, V domains shown)
VH: EVQLVESGGGLVQPDRSLRLSCAASGFTFHDYAMHWVRQAPGKGLEWVSTISWNSGTIGYADSVKGRFTISRDNAKNSLYLQMNSLRAEDTALYYCAKDIQYGNYYYGMDVWGQGTTVTVSS
VL: EIVLTQSPATLSLSPGERATLSCRASQSVSSYLAWYQQKPGQAPRLLIYDASNRATGIPARFSGSGSGTDFTLTISSLEPEDFAVYYCQQRSNWPITFGQGTRLEIK
Consider B2, for which the “EC50 (read off the curve)” value in experiment [4] and in experiment [6] was around 0.3 µg/mL each time.
